Results reported in patent US20230295310A1 (ABCELLERA BIOLOGICS, published 2023).

Target: human EGFR, C-terminal eGFP-tagged, on CHO-K1 cells (human, UniProt P00533 25-1210)
Assay: cell-based or functional assay

| Binder | EC50 CHO-K1 EGFR Low (nM); T cell activation bioassay, luciferase [nM] | EC50 CHO-K1 EGFR Med (nM); T cell activation bioassay, luciferase [nM] |
| --- | --- | --- |
| GOMP001_bsAb_044 (bispecific antibody, human IgG1, kappa, L234A L235A) heavy 1: EVQLVESGGGLVKTGGSLRLSCVASGFSFKKAWMNWVRYAPGKGLEWVGRIKRNTDGGTADYAARVKGRFTLSRDDSKKTLFLQMNSLKTEDTAVYYCTTLDSSSYYVGYYYMDVWGRGTTVTVSSASTKGPSVFPLAPSSKSTSGGTAALGCLVKDYFPEPVTVSWNSGALTSGVHTFPAVLQSSGLYSLSSVVTVPSSSLGTQTYICNVNHKPSNTKVDKKVEPKSCDKTHTCPPCPAPEAAGGPSVFLFPPKPKDTLMISRTPEVTCVVVDVSHEDPEVKFNWYVDGVEVHNAKTKPREEQYNSTYRVVSVLTVLHQDWLNGKEYKCKVSNKALPAPIEKTISKAKGQPRRPRVYTLPPSREEMTKNQVSLVCLVKGFYPSDIAVEWESNGQPENNYKTTPPVLDSDGSFFLYSVLTVDKSRWQQGNVFSCSVMHEALHNHYTQKSLSLSPG light 1: DIQMTQSPSSVSASVGDRVTITCRASQDINNWLAWYQRKPGDAPKLLIYTASSLQSGVPSRFSGSGSGTDFTLTIGSLQPEDFATYYCQQAHSLPITFGQGTRLEIKRTVAAPSVFIFPPSDEQLKSGTASVVCLLNNFYPREAKVQWKVDNALQSGNSQESVTEQDSKDSTYSLSSTLTLSKADYEKHKVYACEVTHQGLSSPVTKSFNRGEC heavy 2: QVQLVQSGAEVKKPGASVKVSCKASGYTFTSHWMHWVRYAPGQGLEWIGEFNPSNGRTNYNEKFKSKATMTVDTSTNTAYMELSSLRSEDTAVYYCASRDYDYDGRYFDYWGRGTLVTVSSASTKGPSVFPLAPSSKSTSGGTAALGCLVKDYFPEPVTVSWNSGALTSGVHTFPAVLQSSGLYSLSSVVTVPSSSLGTQTYICNVNHKPSNTKVDKKVEPKSCDKTHTCPPCPAPEAAGGPSVFLFPPKPKDTLMISRTPEVTCVVVDVSHEDPEVKFNWYVDGVEVHNAKTKPREEQYNSTYRVVSVLTVLHQDWLNGKEYKCKVSNKALPAPIEKTISKAKGQPRRPRVYTLPPSREEMTKNQVSLVCLVKGFYPSDIAVEWESNGQPENNYKTTPPVLDSDGSFFLYSVLTVDKSRWQQGNVFSCSVMHEALHNHYTQKSLSLSPG light 2: DIQMTQSPSSLSASVGDRVTITCSASSSVTYMYWYQRKPGDAPKLLIYDTSNLASGVPSRFSGSGSGTDYTFTISSLQPEDIATYYCQQWSSHIFTFGQGTKVEIKRTVAAPSVFIFPPSDEQLKSGTASVVCLLNNFYPREAKVQWKVDNALQSGNSQESVTEQDSKDSTYSLSSTLTLSKADYEKHKVYACEVTHQGLSSPVTKSFNRGEC | 0.0136 | 0.0041 |
| GOMP001_bsAb_049 (bispecific antibody, human IgG1, kappa, L234A L235A) heavy 1: QVQLVQSGAEVKKPGASVKVSCKASGYTFTSHWMHWVRKAPGQGLEWIGEFNPSNGRTNYNEEFKSKATMTVDTSTNTAYMELSSLRSEDTAVYYCASRDYDYDGRYFDYWGQGTLVTVSSASTKGPSVFPLAPSSKSTSGGTAALGCLVADYFPEPVTVSWNSGALTSGVHTFPAVLQSSGLYSLSSVVTVPSSSLGTQTYICNVNHKPSNTKVDEKVEPKSCDKTHTCPPCPAPEAAGGPSVFLFPPKPKDTLMISRTPEVTCVVVDVSHEDPEVKFNWYVDGVEVHNAKTKPREEQYNSTYRVVSVLTVLHQDWLNGKEYKCKVSNKALPAPIEKTISKAKGQPREPQVYTLPPSREEMTDNQVSLTCLVKGFYPSDIAVEWESNGQPENNYKTTPPVLMSDGSFFLASKLTVDKSRWQQGNVFSCSVMHEALHNHYTQKSLSLSPG light 1: RIQMTQSPSSLSASVGDRVTITCSASSSVTYMYWYQDKPGKAPKLLIYDTSNLASGVPSRFSGSGSGTDYTFTISSLQPEDIATYYCQQWSSHIFTFGQGTKVEIKRTVAAPSVFIFPPSDKQLKSGTARVVCLLNNFYPREAKVQWKVDNALQSGNSQESVTEQDSKDSTYSLSSTLTLSKADYEKHKVYACEVTHQGLSSPVTKSFNRGEC heavy 2: QVQLVESGGGVVQPGRSLRLSCAASGFTFSTYGMHWVRYAPGKGLEWVAVIWYDGSHKYYADRVKGRFTISRDNSKKTLYLQMNSLRAEDTGIYYCARTGISGNMSYFYFDHWGRGILVTVSSASTKGPSVFPLAPSSKSTSGGTAALGCLVKDYFPEPVTVSWNSGALTSGVHTFPAVLQSSGLYSLSSVVTVPSSSLGTQTYICNVNHKPSNTKVDKKVEPKSCDKTHTCPPCPAPEAAGGPSVFLFPPKPKDTLMISRTPEVTCVVVDVSHEDPEVKFNWYVDGVEVHNAKTKPREEQYNSTYRVVSVLTVLHQDWLNGKEYKCKVSNKALPAPIEKTISKAKGQPRRPRVYTLPPSREEMTKNQVSLVCLVKGFYPSDIAVEWESNGQPENNYKTTPPVLDSDGSFFLYSVLTVDKSRWQQGNVFSCSVMHEALHNHYTQKSLSLSPG light 2: not shown | – | 0.138 |
| GOMP001_bsAb_045 (bispecific antibody, human IgG1, kappa, L234A L235A) heavy 1: QVQLVQSGAEVKKPGASVKVSCKASGYTFTSHWMHWVRKAPGQGLEWIGEFNPSNGRTNYNEEFKSKATMTVDTSTNTAYMELSSLRSEDTAVYYCASRDYDYDGRYFDYWGQGTLVTVSSASTKGPSVFPLAPSSKSTSGGTAALGCLVADYFPEPVTVSWNSGALTSGVHTFPAVLQSSGLYSLSSVVTVPSSSLGTQTYICNVNHKPSNTKVDEKVEPKSCDKTHTCPPCPAPEAAGGPSVFLFPPKPKDTLMISRTPEVTCVVVDVSHEDPEVKFNWYVDGVEVHNAKTKPREEQYNSTYRVVSVLTVLHQDWLNGKEYKCKVSNKALPAPIEKTISKAKGQPREPQVYTLPPSREEMTDNQVSLTCLVKGFYPSDIAVEWESNGQPENNYKTTPPVLMSDGSFFLASKLTVDKSRWQQGNVFSCSVMHEALHNHYTQKSLSLSPG light 1: RIQMTQSPSSLSASVGDRVTITCSASSSVTYMYWYQDKPGKAPKLLIYDTSNLASGVPSRFSGSGSGTDYTFTISSLQPEDIATYYCQQWSSHIFTFGQGTKVEIKRTVAAPSVFIFPPSDKQLKSGTARVVCLLNNFYPREAKVQWKVDNALQSGNSQESVTEQDSKDSTYSLSSTLTLSKADYEKHKVYACEVTHQGLSSPVTKSFNRGEC heavy 2: QVQLVQSGAEVKKPGASVKVSCKASGYTFTSHWMHWVRKAPGQGLEWIGEFNPSNGRTNYNEEFKSKATMTVDTSTNTAYMELSSLRSEDTAVYYCASRDYDYDGRYFDYWGQGTLVTVSSASTKGPSVFPLAPSSKSTSGGTAALGCLVADYFPEPVTVSWNSGALTSGVHTFPAVLQSSGLYSLSSVVTVPSSSLGTQTYICNVNHKPSNTKVDEKVEPKSCDKTHTCPPCPAPEAAGGPSVFLFPPKPKDTLMISRTPEVTCVVVDVSHEDPEVKFNWYVDGVEVHNAKTKPREEQYNSTYRVVSVLTVLHQDWLNGKEYKCKVSNKALPAPIEKTISKAKGQPREPQVYTLPPSREEMTDNQVSLTCLVKGFYPSDIAVEWESNGQPENNYKTTPPVLMSDGSFFLASKLTVDKSRWQQGNVFSCSVMHEALHNHYTQKSLSLSPG light 2: not shown | 0.071 | 0.00792 |
| GOMP001_bsAb_050 (bispecific antibody, human IgG1, kappa, L234A L235A) heavy 1: QVQLVESGGGVVQPGRSLRLSCAASGFTFSTYGMHWVRYAPGKGLEWVAVIWYDGSHKYYADRVKGRFTISRDNSKKTLYLQMNSLRAEDTGIYYCARTGISGNMSYFYFDHWGRGILVTVSSASTKGPSVFPLAPSSKSTSGGTAALGCLVKDYFPEPVTVSWNSGALTSGVHTFPAVLQSSGLYSLSSVVTVPSSSLGTQTYICNVNHKPSNTKVDKKVEPKSCDKTHTCPPCPAPEAAGGPSVFLFPPKPKDTLMISRTPEVTCVVVDVSHEDPEVKFNWYVDGVEVHNAKTKPREEQYNSTYRVVSVLTVLHQDWLNGKEYKCKVSNKALPAPIEKTISKAKGQPRRPRVYTLPPSREEMTKNQVSLVCLVKGFYPSDIAVEWESNGQPENNYKTTPPVLDSDGSFFLYSVLTVDKSRWQQGNVFSCSVMHEALHNHYTQKSLSLSPG light 1: not shown heavy 2: QVQLVQSGAEVKKPGASVKVSCKASGYTFTSHWMHWVRYAPGQGLEWIGEFNPSNGRTNYNEKFKSKATMTVDTSTNTAYMELSSLRSEDTAVYYCASRDYDYDGRYFDYWGRGTLVTVSSASTKGPSVFPLAPSSKSTSGGTAALGCLVKDYFPEPVTVSWNSGALTSGVHTFPAVLQSSGLYSLSSVVTVPSSSLGTQTYICNVNHKPSNTKVDKKVEPKSCDKTHTCPPCPAPEAAGGPSVFLFPPKPKDTLMISRTPEVTCVVVDVSHEDPEVKFNWYVDGVEVHNAKTKPREEQYNSTYRVVSVLTVLHQDWLNGKEYKCKVSNKALPAPIEKTISKAKGQPRRPRVYTLPPSREEMTKNQVSLVCLVKGFYPSDIAVEWESNGQPENNYKTTPPVLDSDGSFFLYSVLTVDKSRWQQGNVFSCSVMHEALHNHYTQKSLSLSPG light 2: DIQMTQSPSSLSASVGDRVTITCSASSSVTYMYWYQRKPGDAPKLLIYDTSNLASGVPSRFSGSGSGTDYTFTISSLQPEDIATYYCQQWSSHIFTFGQGTKVEIKRTVAAPSVFIFPPSDEQLKSGTASVVCLLNNFYPREAKVQWKVDNALQSGNSQESVTEQDSKDSTYSLSSTLTLSKADYEKHKVYACEVTHQGLSSPVTKSFNRGEC | 1.67 | 0.0606 |
| GOMP001_bsAb_046 (bispecific antibody, human IgG1, kappa, L234A L235A) heavy 1: QVQLVQSGAEVKKPGASVKVSCKASGYTFTSHWMHWVRKAPGQGLEWIGEFNPSNGRTNYNEEFKSKATMTVDTSTNTAYMELSSLRSEDTAVYYCASRDYDYDGRYFDYWGQGTLVTVSSASTKGPSVFPLAPSSKSTSGGTAALGCLVADYFPEPVTVSWNSGALTSGVHTFPAVLQSSGLYSLSSVVTVPSSSLGTQTYICNVNHKPSNTKVDEKVEPKSCDKTHTCPPCPAPEAAGGPSVFLFPPKPKDTLMISRTPEVTCVVVDVSHEDPEVKFNWYVDGVEVHNAKTKPREEQYNSTYRVVSVLTVLHQDWLNGKEYKCKVSNKALPAPIEKTISKAKGQPREPQVYTLPPSREEMTDNQVSLTCLVKGFYPSDIAVEWESNGQPENNYKTTPPVLMSDGSFFLASKLTVDKSRWQQGNVFSCSVMHEALHNHYTQKSLSLSPG light 1: not shown heavy 2: QVQLVQSGAEVKKPGASVKVSCKASGYTFTSHWMHWVRYAPGQGLEWIGEFNPSNGRTNYNEKFKSKATMTVDTSTNTAYMELSSLRSEDTAVYYCASRDYDYDGRYFDYWGRGTLVTVSSASTKGPSVFPLAPSSKSTSGGTAALGCLVKDYFPEPVTVSWNSGALTSGVHTFPAVLQSSGLYSLSSVVTVPSSSLGTQTYICNVNHKPSNTKVDKKVEPKSCDKTHTCPPCPAPEAAGGPSVFLFPPKPKDTLMISRTPEVTCVVVDVSHEDPEVKFNWYVDGVEVHNAKTKPREEQYNSTYRVVSVLTVLHQDWLNGKEYKCKVSNKALPAPIEKTISKAKGQPRRPRVYTLPPSREEMTKNQVSLVCLVKGFYPSDIAVEWESNGQPENNYKTTPPVLDSDGSFFLYSVLTVDKSRWQQGNVFSCSVMHEALHNHYTQKSLSLSPG light 2: DIQMTQSPSSLSASVGDRVTITCSASSSVTYMYWYQRKPGDAPKLLIYDTSNLASGVPSRFSGSGSGTDYTFTISSLQPEDIATYYCQQWSSHIFTFGQGTKVEIKRTVAAPSVFIFPPSDEQLKSGTASVVCLLNNFYPREAKVQWKVDNALQSGNSQESVTEQDSKDSTYSLSSTLTLSKADYEKHKVYACEVTHQGLSSPVTKSFNRGEC | 0.02 | 0.00409 |
